# Measured values taken from the nanobody polyreactivity screen of Harvey et al. (2022).
# Test: yeast display, Sf9 membrane polyspecificity reagent, FACS + sequencing; frameworks hold sequencing errors
# Outline: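 Using colony PCR, genes from sorted yeast display clones were amplified, then sequenced on MiSeq at 2 × 250 and filtered by CDR length. The clones had been stained with 10% biotinylated, detergent-solubilized Sf9 membrane reagent for 1 hour at 4 °C and sorted by FACS into low and high (top ~1%) gates on anti-HA and streptavidin fluorescence. Polyreactivity labels come from the gate of origin.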
row,Sequence,polyreactivity (PSR sort gate)
1,QVQLVESGGGLVQAGGSLRLSCAASGISFWDYAMGWYRQAPGKERELVAAISSGGSTYYADSVKGRFTISRDNAKNTVYLQMNSLKPEDTAVFYCNAEQRYYRKVKGNYWGQGTQVSVSS,high polyreactivity
2,QVQLVESGGGLVQAGGSLRLSCAASGISFYLYAMGWYRQAPGKERELVAAISWRGDSTYYADSVKGRFTISRDNAKNTVYLQMNSLKPEDTAVYYCAADLLPLYDYWGQGTQVTGSS,high polyreactivity
3,QVQLVESGGGLVQAGGSLRLSCAASGISSWYYAMGWYRQAPGKERELVAAITSDGRTNYADSVKGRFTISRDNAKNTVYLQMKSLKPEDTAVYYCAAARRVGVSHYRYGYWGHGTQVTVSS,high polyreactivity
4,QVQLVESGGGLVQAGGSLRLSCAASGITFAGYARGWYRQAPGKERELVAAISGSGGSTYYADSVKGRFTISRDNAKNTVYLQMNSLKPEDTAVYYCNADVVPQYYSWGQGTQVTVSS,low polyreactivity
5,QVQLVESGGGLVQAGGSLRLSCAASGITFAQYAMGWYRQAPGKERELVAGITRSGGSTHYADSVKGRFTISRDNAKNSVYLQMNSLKPEDTAVYYCAKGLSTGRAYRGYDYWGQGTQVTVSS,high polyreactivity
6,QVQLVESGGGLVQAGGSLRLSCAASGITFASYAMGWYRQAPGKERELVAAISRTGGSTYYADSVKGRFTISRDNAKNTVYLQMNSLKPEDTAVYYCAARIPYTGYDYWGQGTQVTVSS,high polyreactivity
7,QVQLVESGGGLVQAGGSLRLSCAASGITFATNAMGWYRQAPGKERELVAGITSGGSTYYADSVKGRFTISRDNAKNTVYLQMNSLKPEDTAVYYCNTAVKVERDYWGQGTQVTVSS,low polyreactivity
8,QVQLVESGGGLVQAGGSLRLSCAASGITFAWYAMGWYRQAPGKERELVAAIDDRGGSTYYADSVKGRFTISRDNAKNTVYFQMNSLKPEDTAVYYCNADTKSYEPYRLDYWGQGTQVTVSS,low polyreactivity
9,QVQLVESGGGLVQAGGSLRLSCAASGITFAYNAMGWYRQAPGKERELVAAITTGGDTYYADSVKGRFTISRDNAKNTVYLQMNSLKPEDTAVYYCAATPTYWYLWSPYDYWGQGTQVTVSS,low polyreactivity
10,QVQLVESGGGLVQAGGSLRLSCAASGITFAYNVMGWYRQAPGKERELVAAISWTGSSTYYADSVKGRFTISRDNAKNTVYLQMNSLKQEDTAVYYCAARQRYRYDYWGQGTQVTVSS,high polyreactivity
11,QVQLVESGGGLVQAGGSLRLSCAASGITFAYYAMGRSRQAPGKERELVAAIRWSGGDTYYADSVKGRFTISRDNAKNTVYLQMNSLKPEDTAVYYCAADTTWGYDYWGQGTQVTVSS,low polyreactivity
12,QVQLVESGGGLVQAGGSLRLSCAASGITFAYYVMGWYRQAPGKERELVAAITRSGDITSYADSVKGRFTISRDNAKNTVYLQMNSMKPEDTAVYYCNARRGYQSRRYNYWGQGTQVSVSS,high polyreactivity
13,QVQLVESGGGLVQAGGSLRLSCAASGITFDHYTMGWYRHAPGKEREFVADITGSGVRTYYADSVKGRFTISRDNAKNTVYLQMNCLKAEDNAVYYCAKRRTLYYSGKLGYWGQGTQVTVSS,high polyreactivity
14,QVQLVESGGGLVQAGGSLRLSCAASGITFDKNTMGWYRQEPGKVRELVAAISARGGSTYYADSVKGRFTISRDNSKNTVYLQMNSLKPEDTAVYYCAARSGYGPYRMDYWGQGTQVTVSS,high polyreactivity
15,QVQLVESGGGLVQAGGSLRLSCAASGITFDKYAMGWYRQAPGKERQLVAAISGSDGSTYYADSVKGRFTITRDNAKNTVYLQMNSLKPEDTAVYYCAAESEYAGTYEYDYWGQGSQVTVSS,low polyreactivity
16,QVQLVESGGGLVQAGGSLRLSCAASGITFDRYAMGWYRQAPGKERELVAAITSGGRTYYADSVKGRFTISRDNAKNTVYLQMNSLKPEDTAVYYCNATRGQYVGRYYYWGQGSQVTVSS,high polyreactivity
17,QVQLVESGGGLVQAGGSLRLSCAASGITFDSNAMGWYRQAPGKERELVAAISASGGRTYYADSVKGRFTISRDNAKNTVYLQMNSLKPEDTAVYYCNARYYVKHPLPYDYWGQGTQVTVSS,low polyreactivity
